In PMC13419597, “An Acetylation-Primed SUMOylation Switch Controls RORβ Stability through a p300-SIRT1 Regulatory Axis” (Research Square, 2024):

Target: T1, His-HA-RORβ (isoform 1) (human, UniProt Q92753-1 1-459)
T1 construct: Retinoic acid receptor-related orphan receptor beta (RORβ), human, isoform 1 (RORβ1); the printed residue numbers (K11 to K459 at the C-terminus of the LBD) fit the 459-residue form; Same plasmid used in TC28a2 (RIME) and HEK293T (co-IP, IP-MS); also called HA-tagged RORβ; RORβ WT; source: TC28a2 or HEK293T, transiently transfected (pCMV6), in lysate
T1 sequence (looked up): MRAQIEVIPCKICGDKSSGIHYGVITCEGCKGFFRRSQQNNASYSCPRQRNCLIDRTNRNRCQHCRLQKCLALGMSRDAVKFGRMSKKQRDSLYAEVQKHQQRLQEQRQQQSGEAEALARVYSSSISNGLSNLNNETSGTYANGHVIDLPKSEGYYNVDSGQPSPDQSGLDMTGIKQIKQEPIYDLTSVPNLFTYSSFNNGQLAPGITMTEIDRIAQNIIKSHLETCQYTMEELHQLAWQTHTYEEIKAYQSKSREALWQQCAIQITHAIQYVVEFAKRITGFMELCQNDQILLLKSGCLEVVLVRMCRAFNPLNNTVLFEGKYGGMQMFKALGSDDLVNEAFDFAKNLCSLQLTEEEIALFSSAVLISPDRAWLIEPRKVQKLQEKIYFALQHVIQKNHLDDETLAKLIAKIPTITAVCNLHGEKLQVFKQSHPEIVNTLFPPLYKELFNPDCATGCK
Assay: affinity purification with mass spectrometry; RIME: HA-RORβ transfected in TC28a2 chondrocytes, 1% formaldehyde crosslinking in cells, nuclear lysate, anti-HA magnetic beads, HA-peptide-blocked control; also with SIRT1 activator SRT2104 against DMSO
Conditions: partners not purified

log2 fold change of PIAS1 in RORβ immunoprecipitates, SRT2104 against DMSO: ~-0.4 log2 fold change (SRT2104/DMSO)
B1: PIAS1, endogenous in TC28a2 (enzyme, human (endogenous in TC28a2), UniProt O75925 1-651, looked up)
chain: MADSAELKQMVMSLRVSELQVLLGYAGRNKHGRKHELLTKALHLLKAGCSPAVQMKIKELYRRRFPQKIMTPADLSIPNVHSSPMPATLSPSTIPQLTYDGHPASSPLLPVSLLGPKHELELPHLTSALHPVHPDIKLQKLPFYDLLDELIKPTSLASDNSQRFRETCFAFALTPQQVQQISSSMDISGTKCDFTVQVQLRFCLSETSCPQEDHFPPNLCVKVNTKPCSLPGYLPPTKNGVEPKRPSRPINITSLVRLSTTVPNTIVVSWTAEIGRNYSMAVYLVKQLSSTVLLQRLRAKGIRNPDHSRALIKEKLTADPDSEIATTSLRVSLLCPLGKMRLTIPCRALTCSHLQCFDATLYIQMNEKKPTWVCPVCDKKAPYEHLIIDGLFMEILKYCTDCDEIQFKEDGTWAPMRSKKEVQEVSASYNGVDGCLSSTLEHQVASHHQSSNKNKKVEVIDLTIDSSSDEEEEEPSAKRTCPSLSPTSPLNNKGILSLPHQASPVSRTPSLPAVDTSYINTSLIQDYRHPFHMTPMPYDLQGLDFFPFLSGDNQHYNTSLLAAAAAAVSDDQDLLHSSRFFPYTSSQMFLDQLSAGGSTSLPTTNGSSSGSNSSLVSSNSLRESHSHTVTNRSSTDTASIFGIIPDIISLD
notes: E3 SUMO-protein ligase PIAS1, endogenous in TC28a2 human chondrocytes; source: endogenous, TC28a2 nuclear lysate
